# Patent publication US20150093398A1, “Methods and Compositions for Treating or Preventing Cancer” (MERCK SHARP & DOHME CORP., priority 2005, published 2015)
# B1: 19D12: anti-IGF1R antibody: light chain variable region amino acids 20-128 of SEQ ID NO: 8, heavy chain variable region amino acids 20-137 of SEQ ID NO: 10 (antibody, V domains shown)
# VL: MSPSQLIGFLLLWVPASRGEIVLTQSPGTLSVSPGERATLSCRASQSIGSSLHWYQQKPGQAPRLLIKYASQSLSGIPDRFSGSGSGTDFTLTISRLEPEDFAVYYCHQSSRLPHTFGQGTKVEIKRT
# VH: MEFGLSWVFLVAILKGVQCEVQLVQSGGGLVKPGGSLRLSCAASGFTFSSFAMHWVRQAPGKGLEWISVIDTRGATYYADSVKGRFTISRDNAKNSLYLQMNSLRAEDTAVYYCARLGNFYYGMDVWGQGTTVTVSS
# modifications: variable regions only: LC 20-128, HC 20-137; constant regions lack entries
# Tested on: SJSA-1 osteosarcoma cells
# Experiment: SJSA-1 osteosarcoma xenograft model (05-IGFR-12), dosing from day 18 post inoculation
# Assay type: in vivo, female nude mouse (strain NU/NU)
# Experimental: About 7 million SJSA-1 osteosarcoma cells were inoculated subcutaneously to the flank of each female nude mouse (strain NU/NU from Charles River, age ˜6 wks-old, average weight ˜20 gram). For the experiment set forth in Table 8, dosing was initiated on day 18 post inoculation, when the xenograft tumor reached an average size of about 100 mm^3. Anti-IGF1R antibody (19D12 Light chain F/Heavy chain A (as set forth above)) was given ip twice a week at the dose of either 0.02 mg, 0.1 and 0.5 mg per mouse, while cytotoxic Cytoxan (cyclophosphamide) was given ip twice per week at the dose of 100 mpk for a total of 3 injection during the course of the study. Xenograft tumor size was measured twice per week with a caliper and captured electronically by the LabCat program.
molecule,measurement,setting,value
B1,Mean Tumor size,"0.02 mg 19D12, Day 0",98 mm3
same,Mean Tumor size,"0.02 mg 19D12, Day 3",121 mm3
same,Mean Tumor size,"0.02 mg 19D12, Day 7",197 mm3
same,Mean Tumor size,"0.02 mg 19D12, Day 10",272 mm3
same,Mean Tumor size,"0.02 mg 19D12, Day 14",423 mm3
same,Mean Tumor size,"0.02 mg 19D12, Day 17",675 mm3
same,Mean Tumor size,"0.1 mg 19D12, Day 0",96 mm3
same,Mean Tumor size,"0.1 mg 19D12, Day 3",121 mm3
same,Mean Tumor size,"0.1 mg 19D12, Day 7",144 mm3
same,Mean Tumor size,"0.1 mg 19D12, Day 10",231 mm3
same,Mean Tumor size,"0.1 mg 19D12, Day 14",378 mm3
same,Mean Tumor size,"0.1 mg 19D12, Day 17",431 mm3
same,Mean Tumor size,"0.1 mg 19D12, Day 21",1037 mm3
same,Mean Tumor size,"0.5 mg 19D12, Day 0",96 mm3
same,Mean Tumor size,"0.5 mg 19D12, Day 3",103 mm3
same,Mean Tumor size,"0.5 mg 19D12, Day 7",122 mm3
same,Mean Tumor size,"0.5 mg 19D12, Day 10",115 mm3
same,Mean Tumor size,"0.5 mg 19D12, Day 14",282 mm3
same,Mean Tumor size,"0.5 mg 19D12, Day 17",435 mm3
same,Mean Tumor size,"0.5 mg 19D12, Day 21",890 mm3
same,growth inhibition of the osteosarcoma tumor (in words),"ip twice a week, 0.02, 0.1 or 0.5 mg per mouse, summary of Table 8",marked anti-IGF1R-dependent growth inhibition
